# Earlier results, collected in PMC5559722.
# Where two headings read alike, the source gives them in different places.
# Tests used:
# p97 N-domain [1] = biological target: p97 N-domain (UniProt P55072)
# p97 N-domain [2] = biological target: p97 N-domain (UniProt P55072); remark: listed apart in the source
# p97 N-domain [3] = biological target: p97 N-domain (UniProt P55072); experiment: ITC
# RNF31 PUB (Homo sapiens) = RNF31 PUB (Homo sapiens) (UniProt Q96EP0)
# [4] = biological target: p97 C-terminal peptide (Homo sapiens) (UniProt P55072)
# p97 N-domain [5] = biological target: p97 N-domain (UniProt P55072); remark: listed apart in the source
substance,measurement,setting,value
FAF1 UBX (from UniProt Q9UNN5),Kd,p97 N-domain [1],1000 nM
NPL4 UBXL (from UniProt Q8TAT6),Kd,p97 N-domain [2],18000 nM
OTU1 UBXL (from UniProt Q5VVQ6),Kd,p97 N-domain [3],700 nM
OTULIN (from UniProt Q96BN8),Kd,RNF31 PUB (Homo sapiens),300 nM
RNF31 PUB (from UniProt Q96EP0),Kd,[4],50000 nM
p47 UBX (from UniProt Q9UNZ2),Kd,p97 N-domain [5],1000 nM
